Measurements taken from article PMC4622713.

Columns and labels:
[1] = target: CT-P13 (Remsima®, infliximab biosimilar); assay: ELISA
[2] = target: Remicade® (infliximab, reference medicinal product); assay: ELISA
FcRn = FcRn (UniProt P55899); assay: SPR
UniProt P55899, sequence (P55899 whole entry, looked up, tested part not stated): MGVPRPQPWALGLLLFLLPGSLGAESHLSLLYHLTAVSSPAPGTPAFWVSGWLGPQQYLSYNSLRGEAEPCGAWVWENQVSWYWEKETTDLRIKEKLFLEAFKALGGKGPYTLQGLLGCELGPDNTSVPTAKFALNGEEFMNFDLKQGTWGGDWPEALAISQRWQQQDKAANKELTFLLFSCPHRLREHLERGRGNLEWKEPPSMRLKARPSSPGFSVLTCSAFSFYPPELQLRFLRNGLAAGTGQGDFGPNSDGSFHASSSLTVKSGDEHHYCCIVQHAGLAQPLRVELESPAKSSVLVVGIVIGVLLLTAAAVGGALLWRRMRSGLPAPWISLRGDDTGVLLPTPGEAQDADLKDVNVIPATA

Row | relative binding affinity, average (%) [1] | relative binding affinity, average (%) [2] | relative binding affinity, average (%) (FcRn) | Substance
1 | 100% | 98% | – | C1q (complex)
2 | – | – | 101% | CT-P13 (Remsima®, infliximab biosimilar) (antibody)
3 | – | – | 97% | Remicade® (infliximab, reference medicinal product) (antibody)
